Laboratory results published in patent US20210155689A1 (SHANGHAI PHARMAEXPLORER, published 2021).
Numbering of substitutions follows the chain as printed.

T1: human LAG-3 protein with hFc tag (hLAG-3-hFc protein) (human, UniProt P18627 23-450)
T1 construct: also called immunogen 1; LAG-3 extracellular domain protein; not shown: human IgG Fc fragment (hFc) of the pCpC vector
T1 sequence: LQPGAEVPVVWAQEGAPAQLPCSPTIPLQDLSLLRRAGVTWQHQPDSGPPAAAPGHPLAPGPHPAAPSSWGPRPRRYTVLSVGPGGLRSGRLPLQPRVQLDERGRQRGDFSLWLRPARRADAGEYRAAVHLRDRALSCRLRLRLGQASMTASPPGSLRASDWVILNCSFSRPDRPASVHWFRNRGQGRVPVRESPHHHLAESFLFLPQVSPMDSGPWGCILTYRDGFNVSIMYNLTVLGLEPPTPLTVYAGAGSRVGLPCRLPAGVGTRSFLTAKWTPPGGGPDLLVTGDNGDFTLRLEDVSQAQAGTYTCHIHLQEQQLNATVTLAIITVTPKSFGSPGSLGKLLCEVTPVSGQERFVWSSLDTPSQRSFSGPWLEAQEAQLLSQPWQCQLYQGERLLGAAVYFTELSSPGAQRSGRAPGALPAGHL

T2: monkey LAG-3 (full length, on the cell surface) (monkey, UniProt P18627 24-525 (human entry))
T2 construct: also called HEK293-cLAG-3; monkey LAG-3 protein on the cell surface
T2 chain: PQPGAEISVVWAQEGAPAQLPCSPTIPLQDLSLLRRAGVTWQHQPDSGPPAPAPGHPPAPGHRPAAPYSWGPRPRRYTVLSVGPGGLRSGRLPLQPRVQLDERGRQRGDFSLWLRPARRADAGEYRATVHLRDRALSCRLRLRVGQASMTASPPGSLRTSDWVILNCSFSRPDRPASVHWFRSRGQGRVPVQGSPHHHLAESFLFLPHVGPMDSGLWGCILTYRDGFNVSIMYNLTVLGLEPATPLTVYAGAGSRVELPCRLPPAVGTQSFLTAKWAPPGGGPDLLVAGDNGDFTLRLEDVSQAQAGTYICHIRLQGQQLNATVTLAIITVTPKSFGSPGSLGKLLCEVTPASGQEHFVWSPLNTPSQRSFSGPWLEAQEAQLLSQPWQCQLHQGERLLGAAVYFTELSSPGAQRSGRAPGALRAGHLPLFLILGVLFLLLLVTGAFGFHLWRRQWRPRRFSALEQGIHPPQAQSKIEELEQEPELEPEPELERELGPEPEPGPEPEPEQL

T3: human LAG-3 on cells (HEK293-hLAG-3 stable cell line) (human, UniProt P18627 23-525)
T3 sequence: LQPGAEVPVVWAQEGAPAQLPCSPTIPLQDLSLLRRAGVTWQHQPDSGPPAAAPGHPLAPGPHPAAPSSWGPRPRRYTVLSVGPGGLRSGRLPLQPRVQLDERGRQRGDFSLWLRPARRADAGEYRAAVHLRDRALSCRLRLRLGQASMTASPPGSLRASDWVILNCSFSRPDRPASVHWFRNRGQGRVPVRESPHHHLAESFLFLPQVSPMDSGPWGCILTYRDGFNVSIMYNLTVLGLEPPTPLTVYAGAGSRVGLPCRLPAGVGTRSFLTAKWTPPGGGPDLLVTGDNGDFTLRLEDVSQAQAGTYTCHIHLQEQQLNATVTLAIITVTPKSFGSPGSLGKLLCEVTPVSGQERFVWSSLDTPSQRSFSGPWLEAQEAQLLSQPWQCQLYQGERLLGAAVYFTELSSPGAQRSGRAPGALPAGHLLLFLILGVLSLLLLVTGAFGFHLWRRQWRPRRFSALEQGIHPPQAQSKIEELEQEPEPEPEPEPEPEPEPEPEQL

T4: human LAG-3 (full length, on the cell surface) (human, UniProt P18627 23-525)
T4 construct: Full-length human LAG-3 expressed on cells; also called HEK293-hLAG-3; HEK293 cells transfected with LAG-3 gene
T4 sequence: T3 sequence

B1: 556F6B8 (LAG-3 mouse-human chimeric antibody) (antibody, V domains shown)
VH: RVQLKQSGPGLVQPSQSLSITCTVSGFSLIKYGVHWVRQSPGEGLEWLGVIWRGGITDYNAAFMSRLSITKDNSKSQVFFKMNSLQADDTAIYYCAKWDGPLAMDYWGQGTSVTVSS
VL: DIVMTQSHKFLSTSVGDRVSITCKASQDVGTTVAWYQQKPGQSPKLLIYWASTRHTGVPDRFTGSGSGTDFTLTISNVQSEDLADYFCQQYSSYPYTFGGGTKLEIK
notes: also called 556F8B8
B2: 105F1E10 (LAG-3 mouse-human chimeric antibody) (antibody, V domains shown)
VH: EVQLQQSGPELVKPGASVKMSCRASGYTFTDFKMHWMKQSHGKSLEWIGYIAPNNGGTAYNQKFRGKATLTVNESSNTAYMELRSLTSEDSAVYYCVDWDDVDYWGQGTTLTVSS
VL: DIKMTQSPSSMYASLGERVTITCKASQDINSYLSWFQQKSGKSPKTLIYRANRLVDGVPSRFSGSGSGQDYSLTISSLEYEDMGIYYCLQYVEFPLTFGAGTKLELK
B3: 405B8H3 (LAG-3 mouse-human chimeric antibody) (antibody, V domains shown)
VH: QVQLQQSGAELVRPGASVTLSCKASGYTFTDYEMHWVKQTPVHGLEWIGATDPETGNSAYNQKFKGKAIMTADKSSSTAYMELRSLTSEDSAVYYCISTGWNDWGQGTSLTVSS
VL: B2 VL with S40P, N52D, V55L, E81G, V92D, L96Y, A100G, L106I
notes: also called mouse-human chimeric antibody 405B8H3
B4: 409B11E12 (LAG-3 mouse-human chimeric antibody) (antibody, V domains shown)
VH: B3 VH with P41T, G56S, N57Y, M70L, S98A
VL: B2 VL with I2L, S40P, V55L, V92D, L96Y, A100G, L106I
B5: 409D4E10 (LAG-3 mouse-human chimeric antibody) (antibody, V domains shown)
VH: B3 VH with Y27N, G56D, S58T, M70L, A72T, S98T, T99S
VL: B2 VL with S40P, V55L, V92N, L96Y, A100G, L106I
B6: 556F6B8 (mouse antibody purified from hybridoma) (antibody, V domains shown)
VH: B1 VH
VL: B1 VL
notes: also called mAb123-556F6B8
B7: 405B8H3 (mouse antibody purified from hybridoma) (antibody, V domains shown)
VH: B3 VH
VL: B2 VL with S40P, N52D, V55L, E81G, V92D, L96Y, A100G, L106I
notes: also called mAb103-405B8H3; 405B81-13
B8: 105F1E10 (mouse antibody purified from hybridoma) (antibody, V domains shown)
VH: B2 VH
VL: B2 VL
notes: also called mAb009-105F1E10
B9: 409D4E10 (mouse antibody purified from hybridoma) (antibody, V domains shown)
VH: B3 VH with Y27N, G56D, S58T, M70L, A72T, S98T, T99S
VL: B2 VL with S40P, V55L, V92N, L96Y, A100G, L106I
notes: also called mAb112-409D4E10
B10: 409B11E12 (mouse antibody purified from hybridoma) (antibody, V domains shown)
VH: B3 VH with P41T, G56S, N57Y, M70L, S98A
VL: B2 VL with I2L, S40P, V55L, V92D, L96Y, A100G, L106I
notes: also called mAb104-409B11E12
B11: 556F6B8 mouse-human chimeric antibody (antibody, V domains shown)
VH: B1 VH
VL: B1 VL
notes: also called mAb123-556F6B8; 556F8B8
B12: 105F1E10 mouse-human chimeric antibody (antibody, V domains shown)
VH: B2 VH
VL: B2 VL
notes: also called mAb009-105F1E10
B13: 405B8H3 mouse-human chimeric antibody (antibody, V domains shown)
VH: B3 VH
VL: B2 VL with S40P, N52D, V55L, E81G, V92D, L96Y, A100G, L106I
notes: also called mAb103-405B8H3
B14: 409D4E10 mouse-human chimeric antibody (antibody, V domains shown)
VH: B3 VH with Y27N, G56D, S58T, M70L, A72T, S98T, T99S
VL: B2 VL with S40P, V55L, V92N, L96Y, A100G, L106I
notes: also called mAb112-409D4E10
B15: 409B11E12 mouse-human chimeric antibody (antibody, V domains shown)
VH: B3 VH with P41T, G56S, N57Y, M70L, S98A
VL: B2 VL with I2L, S40P, V55L, V92D, L96Y, A100G, L106I
notes: also called mAb104-409B11E12

The binders below were run against T1, human LAG-3 protein with hFc tag … (assay: ELISA, hLAG-3-hFc coated; 0.0007 nM).
Protocol: (§1) The plate was sealed with plastic film and incubated overnight at 4° C. The plate was washed 2 times with the plate washing solution (PBS+0.01% Tween20) on the next day, and added with the blocking solution (PBS+0.01% Tween20+1% BSA) and blocked at room temperature for 1-2 hours. The blocking solution was poured out, and the plate was added with 50-100 μl of the antibody sample to be tested to each well, incubated at 37° C. for 1-2 hours, and washed 2-3 times with a plate washing solution (PBS+0.01% Tween20). HRP (horseradish peroxidase) labeled secondary antibody was added, and the plate was incubated at 37° C. for 1-2 hours, and washed 2-3 times with a plate washing solution (PBS+0.01% Tween20). 100 μl of TMB substrate was added to each well. After incubated at room temperature for 15-30 minutes, the plate was added with 100 μl of stop solution (1.0N HCl) to each well.
Binder B1 has an OD450 of 0.17 OD450.
B2 gave an OD450 of 0.2 OD450.
With B3 the OD450 was 0.19 OD450.
B4 gave an OD450 of 0.2 OD450.
Binder B5 has an OD450 of 0.16 OD450.

Target: T2, monkey LAG-3 (full length, on the cell …)
Test: FACS, HEK293-cLAG-3; 0.320 nM
Description: (§2) The pIRES plasmid with the monkey-derived full-length gene was transfected into the HEK293 cell line to construct a HEK293 stable cell line containing monkey LAG-3 (herein referred to as HEK293-cLAG-3 stable cell line). The HEK293-hLAG-3 stable cell line and HEK293-cLAG-3 stable cell line were expanded in a T-75 cell culture flask to a 90% confluence. The medium was aspirated, and the cells were washed with HBSS (Hanks' Balanced Salt Solution) 1-2 times, then treated with a enzyme-free cell dissociation fluid (Versene solution: Life technology) and the cells were collected. The cells were washed with HBSS buffer for 1-2 times. After counted, the cells were diluted with HBSS to 1-2×10⁶ cells per ml, added with 1% goat serum blocking solution, incubated on ice for 20-30 minutes, and then washed with HBSS for 2 times by centrifugation. The collected cells were suspended in the FACS buffer (HBSS+1% BSA) to 2×10⁶ cells/ml, added as 100 microliters per well to a 96-well FACS reaction plate, added with 100 microliters per well of the antibody sample to be tested, incubated on ice for 1-2 hours. The plate was washed twice with the FACS buffer by centrifugation, added with 100 microliters of fluorescent (Alexa 488)-labeled secondary antibodies per well, and incubated on ice for 0.5-1.0 hours. The plate was washed 2-3 times with FACS buffer by centrifugation, added with 100 μl fixative solution (4% Paraformaldehyde) per well to suspend the cells. 5-10 minutes later, it was washed 1-2 times with FACS buffer by centrifugation. The cells were suspended with 100 microliters of FACS buffer, FACS (FACSCalibur, BD) was used for detection and the results were analyzed.
For B6, the Mean fluorescence intensity was 9.8 MFI.
Binder B7 has a Mean fluorescence intensity of 8 MFI.
For B8, the Mean fluorescence intensity was 6.6 MFI.
B9 showed a Mean fluorescence intensity of 11.5 MFI.
In the case of B10, the Mean fluorescence intensity is reported as 8 MFI.

What follows are binders tested against T3, human LAG-3 on cells (HEK293-hLAG-3 …) (assay: FACS, HEK293-hLAG-3, antibody 0.064 nM).
Description: as §2
B11 was tested, and the Mean fluorescence intensity was 6.5.
With B12 the Mean fluorescence intensity was 5.1.
Binder B13 has a Mean fluorescence intensity of 6.3.
For B14, the Mean fluorescence intensity was 6.3.
B15 was tested, and the Mean fluorescence intensity was 6.3.

These binders were tested against T1, human LAG-3 protein with hFc tag … (assay: ELISA, hLAG-3-hFc coated; 0.0667 nM).
Protocol: as §1
For B1, the OD450 was 1.94 OD450.
B2 showed an OD450 of 1.29 OD450.
For B3, the OD450 was 2.25 OD450.
Work on B4 yielded an OD450 of 2.16 OD450.
Binder B5 has an OD450 of 3.1 OD450.

What follows are binders tested against T4, human LAG-3 (full length, on the cell …) (assay: FACS, HEK293-hLAG-3; 200.000 nM).
Description: as §2
B6 gave a Mean fluorescence intensity of 83.7 MFI.
With B7 the Mean fluorescence intensity was 324 MFI.
Work on B8 yielded a Mean fluorescence intensity of 330 MFI.
B9 showed a Mean fluorescence intensity of 154 MFI.
With B10 the Mean fluorescence intensity was 144 MFI.
